We go through one molecule from patent publication US20180037663A1 (OHIO STATE INNOVATION FOUNDATION, published 2018).

This experiment concerns the target T1, bovine submaxillary mucin (bovine).
T1 construct: Used as surrogate antigen for TAG-72; also called BSM
The experiment can be described thus: binding study of FIG. 14 (inhibition dot blot), compared with 3E8.IgG.

B1: 3E8.scFv (scFv)
scFv: GSSGDIVMTQSPDSLAVSLGERATINCKSSQSVLYSSNNKNYLAWYQQKPGQPPKLLIYWASTRESGVPDRFSGSGSGTDFTLTISSLQAEDVAVYYCQQYYSYPLTFGGGTKVEIKLSADDAKKDAAKKDDAKKDDAKKDLQVQLVQSGAEVKKPGASVKVSCKASGYTFTDHAIHWVRQAPGQRLEWMGYFSPGNDDFKYSQKFQGRVTITADKSASTAYMELSSLRSEDTAVYYCARSWIMQYWGQGTLVTVSS
notes: Monomeric scFv purified from the E. coli periplasm; Labelled at lysines with fluorescein (dot blots) or biotin (HRP dot blot, IHC); also called scFv of 3E8; single chain variable fragment of 3E8
Take B1: the “fold worse binder than 3E8.IgG” value was approximately 16 fold.
